The values that follow come from article PMC10572367, “The Generation of a Nanobody-Based ELISA for Human Microsomal Epoxide Hydrolase” (International Journal of Molecular Sciences, 2023).

Bounds are passed on as bounds.

Test [1] has as its target T1, recombinant human microsomal epoxide hydrolase (Homo sapiens, UniProt P07099, final four amino acid residues of mEH (LERQ) were mutated to the Factor Xa …).
T1 construct: human microsomal epoxide hydrolase (mEH), Uniprot P07099; Extracted from microsomes with beta-DDM; also called mEH; human mEH; source: Tni (Trichoplusia ni) insect cells, baculovirus, purified (Ni-NTA, size exclusion chromatography)
Description: ELISA; direct ELISA testing the titer of the candidate nanobodies; format not described. The following applies: both partners purified. Background: In an ELISA, binding on a coated surface is turned into a signal by an enzyme label.

The target in test [2] is T1, recombinant human microsomal epoxide …. Description: ELISA; phage ELISA of randomly picked single phage clones against recombinant human mEH. The following applies: one partner purified.
The target is the same in test [3]. Description: far-Western, overlay or dot blot; Western blot: recombinant human mEH denatured, run on Mini-protean TGX gels, transferred to PVDF; nanobody as detection antibody (HRP-labelled anti-HA as tracer, or MQM8-HRP). The note with it: both partners purified. (In western blotting, separated proteins are transferred to a membrane and probed.)
In test [4] the target is T2, human mEH in human tissue whole extracts (Homo sapiens, endogenous, UniProt P07099).
T2 construct: human microsomal epoxide hydrolase, endogenous in human tissue extracts (adrenal, esophagus, liver, pancreas, ovary, heart, hippocampus); also called bioactive mEH in the crude extracts; source: endogenous, whole tissue extracts of human commercial tissue samples (BioChain Institute)
Put plainly: ELISA; sandwich ELISAs of formats A, B and C (mAb capture, native or biotinylated MQ30 detection) on human whole tissue extracts diluted 10^3, 10^4 and 10^5-fold. The note with it: one partner purified.

For another test, the target named is T3, rat mEH (rat) (UniProt P07687).
T3 sequence: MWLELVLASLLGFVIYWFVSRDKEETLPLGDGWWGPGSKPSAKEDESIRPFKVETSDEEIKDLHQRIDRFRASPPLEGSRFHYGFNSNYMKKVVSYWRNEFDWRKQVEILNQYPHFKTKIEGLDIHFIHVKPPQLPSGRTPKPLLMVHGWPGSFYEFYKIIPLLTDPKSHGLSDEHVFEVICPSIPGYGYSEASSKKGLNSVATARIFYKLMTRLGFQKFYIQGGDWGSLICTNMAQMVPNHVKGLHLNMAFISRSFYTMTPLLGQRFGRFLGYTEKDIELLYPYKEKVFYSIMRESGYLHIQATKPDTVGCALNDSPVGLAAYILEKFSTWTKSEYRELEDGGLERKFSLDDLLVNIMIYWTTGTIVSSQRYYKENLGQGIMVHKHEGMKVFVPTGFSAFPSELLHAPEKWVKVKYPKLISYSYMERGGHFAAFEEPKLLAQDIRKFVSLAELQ
Put plainly: ELISA; cross-reactivity in the format A sandwich (mAb capture, MQ30 detection): epoxide hydrolases spiked at 1000 ng mL^-1 in PBS, read against the human mEH standard curve; a signal needs capture by the mAb as well as MQ30.

For another test, the target named is T4, human sEH (human) (UniProt P34913).
T4 sequence: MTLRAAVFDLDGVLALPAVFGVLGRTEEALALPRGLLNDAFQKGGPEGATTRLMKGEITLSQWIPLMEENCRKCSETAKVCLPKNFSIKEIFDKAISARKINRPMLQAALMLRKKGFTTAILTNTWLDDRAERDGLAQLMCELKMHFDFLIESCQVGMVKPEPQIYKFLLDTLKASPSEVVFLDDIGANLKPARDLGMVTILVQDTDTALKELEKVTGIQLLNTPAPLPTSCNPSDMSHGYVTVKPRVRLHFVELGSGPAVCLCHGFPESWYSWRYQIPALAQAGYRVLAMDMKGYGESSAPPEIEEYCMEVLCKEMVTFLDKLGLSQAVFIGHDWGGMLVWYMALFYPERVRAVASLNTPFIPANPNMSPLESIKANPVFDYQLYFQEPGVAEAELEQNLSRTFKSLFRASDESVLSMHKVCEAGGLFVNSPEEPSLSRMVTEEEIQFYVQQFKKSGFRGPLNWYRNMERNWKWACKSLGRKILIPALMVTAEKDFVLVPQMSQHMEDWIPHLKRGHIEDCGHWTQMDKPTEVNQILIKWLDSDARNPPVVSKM
The description is as above.

The next test addresses T5, human EH-3 (human) (UniProt Q9H6B9).
T5 sequence: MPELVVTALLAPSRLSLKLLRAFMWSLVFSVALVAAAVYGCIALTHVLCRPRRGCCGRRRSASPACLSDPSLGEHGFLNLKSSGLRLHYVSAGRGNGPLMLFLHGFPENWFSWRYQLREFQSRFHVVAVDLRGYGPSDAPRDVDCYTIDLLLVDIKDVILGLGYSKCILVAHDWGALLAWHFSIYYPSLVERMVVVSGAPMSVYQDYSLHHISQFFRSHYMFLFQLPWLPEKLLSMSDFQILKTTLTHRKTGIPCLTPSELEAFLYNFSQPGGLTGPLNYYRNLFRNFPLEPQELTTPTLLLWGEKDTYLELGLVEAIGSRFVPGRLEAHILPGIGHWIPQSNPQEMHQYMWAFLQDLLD
The description is as above.

The target in the next test is T6, human EH-4 (human) (UniProt Q8IUS5).
T6 sequence: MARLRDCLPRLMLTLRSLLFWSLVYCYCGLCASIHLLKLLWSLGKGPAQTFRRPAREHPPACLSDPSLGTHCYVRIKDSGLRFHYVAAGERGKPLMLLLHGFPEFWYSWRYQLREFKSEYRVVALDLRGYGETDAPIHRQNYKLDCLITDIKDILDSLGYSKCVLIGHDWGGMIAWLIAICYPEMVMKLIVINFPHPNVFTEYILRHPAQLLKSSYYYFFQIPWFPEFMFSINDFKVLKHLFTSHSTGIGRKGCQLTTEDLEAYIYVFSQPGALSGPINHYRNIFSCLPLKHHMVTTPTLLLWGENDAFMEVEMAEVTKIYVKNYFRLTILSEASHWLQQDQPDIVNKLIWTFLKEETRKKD
Described as above.

T1 sequence (P07099 other isoform, or with tags, fused parts or gaps with the stated changes): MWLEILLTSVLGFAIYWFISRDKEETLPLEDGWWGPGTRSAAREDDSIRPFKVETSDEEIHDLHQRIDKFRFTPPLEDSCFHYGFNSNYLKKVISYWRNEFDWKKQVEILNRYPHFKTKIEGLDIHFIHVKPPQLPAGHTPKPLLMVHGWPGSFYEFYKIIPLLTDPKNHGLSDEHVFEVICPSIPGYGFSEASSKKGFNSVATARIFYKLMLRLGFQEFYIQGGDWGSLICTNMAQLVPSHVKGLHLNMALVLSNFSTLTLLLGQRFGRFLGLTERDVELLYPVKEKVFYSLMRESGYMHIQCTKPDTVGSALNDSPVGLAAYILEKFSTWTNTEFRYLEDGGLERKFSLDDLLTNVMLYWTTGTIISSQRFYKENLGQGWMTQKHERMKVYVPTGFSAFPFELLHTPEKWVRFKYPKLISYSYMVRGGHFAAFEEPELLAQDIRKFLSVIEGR
T2 sequence (P07099 whole entry): as the sequence (P07099 other isoform, or with tags, fused parts or gaps with the stated changes) above, with I452L, G454R, R455Q counted along it

B1: nanobody MQ17 (VHH)
VHH: QLQLVESGGGLVQPGGSLTLSCAASGSIFTIDALGWFRQAPGKEREFVAALPWRDGVPYYAASNKGRFSVSKDSAKNTVFKNTVFLQVNNLEPEDTAVYSCAARPWYATSTYSDSDSYGYWGQGTQVTVSS
notes: Selected from a phage library of an immunised llama; In the phage ELISA the clone stood on phage, not as the soluble purified VHH; also called VHH MQ17; source: E. coli TOP10F', purified (B-PER extraction, Ni-NTA); in the phage ELISA as a phage clone
B1: the binding result in test [1] was “binds”.

B2: nanobody MQ4 (VHH)
VHH: QVQLVESGGGLAQPGGSLRLSCDASGSPYIINDMGWYRQAPGKQRELVASITRRGITNVADSVKGRFTISRDNAKMTVYLQMNSLKSEDTALYNCHAQPAVTPRMDYWGQGTQVTVSS
notes: Selected from a phage library of an immunised llama; In the phage ELISA the clone stood on phage, not as the soluble purified VHH; also called VHH MQ4; source: E. coli TOP10F', purified (B-PER extraction, Ni-NTA); in the phage ELISA as a phage clone
B2: in test [2], the binding result is listed as “binds”.

B3: nanobody MQM8 (VHH)
VHH: QLQLVESGGGFVPPGGSLRLSCAASGFIFRFVGMGRYRQAPGKQRELVASITGNDYRNYADSVKGRFTISRDNYKNTVDLQMNSLKPEDTAVYYCNRVPLDFGSWGQGTQVTVSS
notes: Selected from a phage library of an immunised llama; In the phage ELISA the clone stood on phage, not as the soluble purified VHH; also called VHH MQM8; source: E. coli TOP10F', purified (B-PER extraction, Ni-NTA); in the phage ELISA as a phage clone
Take B3: in test [1], the binding result is on record as “binds”.

B4: MQM8-HRP (VHH)
VHH: B3 VHH
notes: as the VHH of m5 (MQM8); Named only as 'MQM8-HRP as a signal tracer'; also called HRP-labelled VHH MQM8
Take B4: the binding result in test [3] is “binds”.

B5: nanobody MQ30 (VHH)
VHH: QVQLVESGGGVVQPGGSLRLSCVVSGSRFSLNFMGWFRQAPGKEREFVAALIWRGDVAHYAASNKGRFTVSKESAKNTVYLQLNSLEPEDTAVYSCAAQPWYSRDTYSDSDSYKYWGQGTQVTVSS
notes: Selected from a phage library of an immunised llama; In the phage ELISA the clone stood on phage, not as the soluble purified VHH; also called VHH MQ30; native VHH MQ30; source: E. coli TOP10F', purified (B-PER extraction, Ni-NTA); in the phage ELISA as a phage clone
On to B5, for which, in test [4], the binding result is on record as “binds”. In addition, the cross-reactivity in the test with rat mEH (rat) was 0.11%; with human sEH (human), under 0.01%; in the test with human EH-3 (human), under 0.01%; with human EH-4 (human), under 0.01%. In the test with rat mEH (rat), this molecule showed a measured concentration at 1000 ng mL^-1 spiked of 1.05 ng/mL.

B6: biotinylated VHH MQ30 (VHH)
VHH: B5 VHH
notes: as the VHH of m4 (MQ30); also called biotinylated MQ30; source: E. coli TOP10F', purified (Ni-NTA), then biotinylated
Turning to B6, in test [4], the binding result is given as “binds”.
